Results published in paper PMC2168087.

B1: 6xHis-tagged PDZ1 domain of ZO-1 (aa 19-113) (domain or fragment)
chain: WEQHTVTLHRAPGFGFGIAISGGRDNPHFQSGETSIVISDVLKGGPAEGQLQENDRVAMVNGVSMDNVEHAFAVQQLRKSGKNAKITIRRKKKVQ
B2: 6xHis-tagged PDZ1 domain of ZO-2 (aa 4-100) (domain or fragment)
chain: VIWEQYTVTLQKDSKRGFGIAVSGGRDNPHFENGETSIVISDVLPGGPADGLLQENDRVVMVNGTPMEDVLHSFAVQQLRKSGKIAAIVVKRPRKVQ
B3: 6xHis-tagged PDZ1 domain of ZO-3 (aa 5-96) (domain or fragment)
chain: TIWEQHTATLYKDPRRGFGIAVSGGHDRASGSVVVSDVVPGSPAEGRLRTGDHIVMVNGVSVENVTSAFAIQILKTCTKTANVTVKRPRRVQ

Target: GST fusion protein with the cytoplasmic domain of claudin-1 (UniProt O88551)
Test: pull-down

UniProt O88551, sequence (O88551 whole entry, the tested form may be a part): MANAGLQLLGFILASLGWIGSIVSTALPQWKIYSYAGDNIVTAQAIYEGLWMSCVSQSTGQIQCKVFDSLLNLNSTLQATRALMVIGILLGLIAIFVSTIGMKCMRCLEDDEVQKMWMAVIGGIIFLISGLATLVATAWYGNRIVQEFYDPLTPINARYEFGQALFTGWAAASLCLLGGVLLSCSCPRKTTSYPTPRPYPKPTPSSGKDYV

Binder	Kd [nM]
B1	13
B2	11
B3	18
